Paper PMC10974336, “Characterization of a Novel Hyperthermophilic GH1 β-Glucosidase from Acidilobus sp. and Its Application in the Hydrolysis of Soybean Isoflavone Glycosides” (Microorganisms, 2024)

Assays:
[1] = substrate: O=[N+]([O-])c1ccc(O[C@@H]2O[C@H](CO)[C@@H](O)[C@H](O)[C@H]2O)cc1; experiment: cells, lysate or membranes; assay type: biochemical, Acidilobus sp. 7A; details: crude enzyme, mutant BglAcN, 30 bp deletion, printed as nine residues (…) at positions 298 to 307, pH 5.0
[2] = substrate: O=[N+]([O-])c1ccc(O[C@@H]2O[C@H](CO)[C@@H](O)[C@H](O)[C@H]2O)cc1; experiment: purified protein; assay type: biochemical, Acidilobus sp. 7A; details: pH 5.0 sodium citrate, 100 °C, pNPG 0.2 to 2 mM

Protein | Km [1] [mM] | Vmax [1] [µmol/min/mg] | kcat [1] [s⁻¹] | kcat/Km [1] [M⁻¹ s⁻¹] | Km [2] [mM] | Vmax [2] [µmol/min/mg] | kcat [2] [s⁻¹] | kcat/Km [2] [M⁻¹ s⁻¹]
BglAc (Acidilobus sp. 7A; DEL298-307) (protein, N-terminal 6xHis tag, pET-30a(+) NdeI/EcoRI, E. coli BL21(DE3), Ni-NTA; residues Glu208, Glu383, Gln19, His152, Asn207, Glu428, Trp429) MTVSFPKGFLFGWSQAGFQSEMGTPGSEDPNSDWYAWVHDRENIASGLVSGDLPENGPGYWGNYRRFHDAAQAMGLSAARIGVEWSRIFPKPTFDVKVHADVRGEEVASVDVSEQALEQLDRLANREAVNHYREMFSDLRSRGITFILNLYHWPLPLWLHDPIAIRRGNLSAPSGWLDVRAVVEFAKFAAYVAWKLDDLVYMYSTMNEPNVVWSHGFTQPKSGFPPGYLCFECSGKAMKNLLQAHARAYDIVKSMTKKPVGVIYATADWTPLTESEADRAAAEAAKAADRWAFFDMLGRLDWIGVNYYSRLVVRAGRSGFQVIPGYGFACEPNSVSPAGRPCSDFGWEFYPEGLYHALKDYWERYHLPLMVTENGAADEGDYLRPYYLVSHIYQVHRAMQEEVNVTGYLHWSLADNYEWASGFGKRFGLLMVDYETKRLYWRPSAFIYREIAKNNAITDEVEHLNRVPPLKPLRK | 8.58 | 288 | 260 | 30300 |  |  |  | 
BglAc (Acidilobus sp. 7A) (protein, N-terminal 6xHis tag, pET-30a(+) NdeI/EcoRI, E. coli BL21(DE3), Ni-NTA; residues Glu208, Glu383, Gln19, His152, Asn207, Glu428, Trp429) MTVSFPKGFLFGWSQAGFQSEMGTPGSEDPNSDWYAWVHDRENIASGLVSGDLPENGPGYWGNYRRFHDAAQAMGLSAARIGVEWSRIFPKPTFDVKVHADVRGEEVASVDVSEQALEQLDRLANREAVNHYREMFSDLRSRGITFILNLYHWPLPLWLHDPIAIRRGNLSAPSGWLDVRAVVEFAKFAAYVAWKLDDLVYMYSTMNEPNVVWSHGFTQPKSGFPPGYLCFECSGKAMKNLLQAHARAYDIVKSMTKKPVGVIYATADWTPLTESEADRAAAEAAKAADRWAFFDMLSKGSPRDDLRGRLDWIGVNYYSRLVVRAGRSGFQVIPGYGFACEPNSVSPAGRPCSDFGWEFYPEGLYHALKDYWERYHLPLMVTENGAADEGDYLRPYYLVSHIYQVHRAMQEEVNVTGYLHWSLADNYEWASGFGKRFGLLMVDYETKRLYWRPSAFIYREIAKNNAITDEVEHLNRVPPLKPLRK |  |  |  |  | 3.41 | 474 | 418 | 123000
